Where two headings read alike, the source gives them in different places.

The target in one experiment is T1, hB7H3 antigen protein (human, UniProt Q5ZPR3 29-461).
T1 construct: prepared in the laboratory
T1 sequence: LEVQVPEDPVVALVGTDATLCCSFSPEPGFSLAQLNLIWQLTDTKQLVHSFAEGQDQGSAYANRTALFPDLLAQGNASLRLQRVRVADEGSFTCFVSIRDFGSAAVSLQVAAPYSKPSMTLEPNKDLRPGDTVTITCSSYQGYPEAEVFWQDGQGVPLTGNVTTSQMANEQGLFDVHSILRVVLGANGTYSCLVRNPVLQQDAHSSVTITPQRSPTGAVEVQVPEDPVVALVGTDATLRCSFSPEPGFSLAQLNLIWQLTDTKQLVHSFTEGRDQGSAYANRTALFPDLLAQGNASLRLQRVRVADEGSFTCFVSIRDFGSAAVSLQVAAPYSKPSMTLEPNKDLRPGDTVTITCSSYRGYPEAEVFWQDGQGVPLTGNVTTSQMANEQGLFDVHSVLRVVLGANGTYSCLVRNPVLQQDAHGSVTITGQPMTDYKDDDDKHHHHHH
The experiment is described as follows: SPR Biacore T200, antibody captured on Protein A chip.

Experiment [1] addresses T2, hCD3 antigen protein (heterodimer of delta and epsilon subunits) (human).
T2 construct: prepared in the laboratory
T2 chain 1: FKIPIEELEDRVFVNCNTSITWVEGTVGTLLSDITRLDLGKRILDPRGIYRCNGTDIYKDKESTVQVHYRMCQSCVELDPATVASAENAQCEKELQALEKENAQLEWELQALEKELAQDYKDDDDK
T2 chain 2: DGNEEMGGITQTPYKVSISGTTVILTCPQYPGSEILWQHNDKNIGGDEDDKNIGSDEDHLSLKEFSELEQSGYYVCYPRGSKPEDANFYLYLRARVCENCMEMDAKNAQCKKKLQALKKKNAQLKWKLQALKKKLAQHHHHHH
The description is as above.

The next experiment deals with T3, hTSLP (human, UniProt Q969D9 29-159).
T3 construct: bought
Briefly: ELISA.

Experiment [2] has as its target T4, hBAFF (human, UniProt Q9Y275 134-285).
T4 construct: bought
Briefly: ELISA.

The target of experiment [3] is T4, hBAFF. Briefly: SPR Biacore T200, antibody captured on Protein A chip.
The target of experiment [4] is T4, hBAFF. Described as above. The source holds these as a separate data set.
In experiment [5] the target is T4, hBAFF. Briefly: ELISA. The source holds these as a separate data set.
For experiment [6], the target named is T5, hP40 (human, UniProt P29460 23-328).
T5 construct: bought
T5 sequence (looked up): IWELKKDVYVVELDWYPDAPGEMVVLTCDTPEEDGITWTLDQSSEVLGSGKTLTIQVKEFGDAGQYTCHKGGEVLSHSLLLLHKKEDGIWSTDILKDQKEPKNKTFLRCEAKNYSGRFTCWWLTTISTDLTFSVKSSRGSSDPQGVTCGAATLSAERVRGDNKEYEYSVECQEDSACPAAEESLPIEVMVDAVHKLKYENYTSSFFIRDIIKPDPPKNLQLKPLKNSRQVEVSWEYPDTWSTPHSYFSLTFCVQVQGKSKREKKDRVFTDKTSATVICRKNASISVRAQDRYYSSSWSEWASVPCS
Briefly: ELISA.

For experiment [7], the target named is T5, hP40. The experiment is described as follows: SPR Biacore T200, antibody captured on Protein A chip.

B1: FA-1 (bispecific antibody)
heavy 1: QVQLVQSGGGVVQPGTSLRLSCAASGFIFSSSAMHWVRQAPGKGLEWVAVISYDGSNKYYVDSVKGRFTISRDNSKNTLYLQMNSLRAEDTAVYYCARSARLYASFDYWGQGALVTVSSGGGGSGIPPKIECLPIDISIDEGKVLTVASAFTGEPTPEVTWSTGGRKIHSQEQGRFHIENTDDLTTLIIKDVQKQDGGLYTLTLRNEFGSDSATVNIHIRSIDKTHTCPPCPAPEAAGGPSVFLFPPKPKDTLMISRTPEVTCVVVDVSHEDPEVKFNWYVDGVEVHNAKTKPREEQYNSTYRVVSVLTVLHQDWLNGKEYKCKVSNKALPAPIEKTISKAKGQPREPQVCTLPPSREEMTKNQVSLSCAVKGFYPSDIAVEWESNGQPENNYKTTPPVLDSDGSFFLVSKLTVDKSRWQQGNVFSCSVMHEALHNHYTQKSLSLSPGK
light 1: DTVVTQEPSFSVSPGGTVTLTCGLSSGSVSTSHYPSWYQQTPGQAPRMLIYNTNTRSSGVPDRFSGSILGNKAALTITGAQADDESDYYCAIHVDRDIWVFGGGTKLTVLGGGGSSGAPRFLTRPLAFVVSVGKDATLSSQIVGNPTPQVSWEKDKQPVTAGARFRLAQDGDLYRLKILDLQLSDSGQYVSRARNAIGEAFACLGLQVDAEA
heavy 2: not shown
light 2: not shown
notes: also called FA-1 bispecific antibody
B1: in the experiment with hB7H3 antigen protein, the affinity, expressed as Kd, was 45 nM; the koff was found to be 0.00712 s⁻¹; the kon was 158000 M⁻¹ s⁻¹. Also, in experiment [1], the affinity, expressed as Kd, was 60.2 nM; the koff was 0.00425 s⁻¹; the kon is 70600 M⁻¹ s⁻¹.

B2: J0 (antibody, human IgG1, lambda)
heavy: not shown
light: SYELTQPLSVSVALGQTARITCSGDNIGSKYVHWYQQKPGQAPVLVIYGDNERPSGIPERFSGSNSGNTATLTISRAQAGDEADYYCQAADWVDFYVFGGGTKLTVLGQPKAAPSVTLFPPSSEELQANKATLVCLISDFYPGAVTVAWKADSSPVKAGVETTTPSKQSNNKYAASSYLSLTPEQWKSHRSYSCQVTHEGSTVEKTVAPTECS
B2 returned an EC50 in the experiment with hTSLP of 0.08 nM.

B3: J2 (antibody)
heavy: not shown
light: SYELTQPLSVSVALGQTARITCSGDNIGSKYVHWYQQKPGQAPVLVIYGDNERPSGIPERFSGSNSGNTATLTISRAQAGDEADYYCQAADWVDFYVFGGGTKLTVLFDPVYKVKPNPPHNLSVINSEELSSILKLTWTNPSIKSVIILKYNIQYRTKDASTWSQIPPEDTASTRSSFTVQDLKPFTEYVFRIRCMKEDGKGYWSDWSEEASGIT
In turn, B3 gave an EC50 with hTSLP of 179 nM.

B4: Bmab (antibody, human IgG1, lambda)
heavy: not shown
light: SSELTQDPAVSVALGQTVRVTCQGDSLRSYYASWYQQKPGQAPVLVIYGKNNRPSGIPDRFSGSSSGNTASLTITGAQAEDEADYYCSSRDSSGNHWVFGGGTELTVLGQPKAAPSVTLFPPSSEELQANKATLVCLISDFYPGAVTVAWKADSSPVKAGVETTTPSKQSNNKYAASSYLSLTPEQWKSHRSYSCQVTHEGSTVEKTVAPTECS
notes: also called B0
Turning to B4, the EC50 with hBAFF [2] stood at 0.219 nM. For the same molecule, in the experiment with hBAFF [3], the affinity, expressed as Kd, was 0.855 nM; the koff is 0.000152 s⁻¹; the kon worked out at 177000 M⁻¹ s⁻¹. Besides, in the experiment with hBAFF [4], the Kd is 0.864 nM, the off-rate constant (koff) was 0.000153 s⁻¹ and the kon turned out to be 177000 M⁻¹ s⁻¹. This molecule returned an EC50 in the experiment with hBAFF [5] of 0.2 nM.

B5: BU1 (bispecific antibody, human IgG1, lambda, L234A L235A)
heavy 1: not shown
light 1: SSELTQDPAVSVALGQTVRVTCQGDSLRSYYASWYQQKPGQAPVLVIYGKNNRPSGIPDRFSGSSSGNTASLTITGAQAEDEADYYCSSRDSSGNHWVFGGGTELTVLGQPKAAPSVTLFPPSSEELQANKATLVCLISDFYPGAVTVAWKADSSPVKAGVETTTPSKQSNNKYAASSYLSLTPEQWKSHRSYSCQVTHEGSTVEKTVAPTECS
heavy 2: EVQLVQSGAEVKKPGESLKISCKGSGYSFTTYWLGWVRQMPGKGLDWIGIMSPVDSDIRYSPSFQGQVTMSVDKSITTAYLQWNSLKASDTAMYYCARRRPGQGYFDFWGQGTLVTVSSGGGGSGIPPKIECLPSDISIDEGKVLTVASAFTGEPTPEVTWSTGGRKIHSQEQGRFHIESTEDLTTLIISDVQKQDGGLYSLSLGNEFGSDSATVNIHIRSIDKTHTCPPCPAPEAAGGPSVFLFPPKPKDTLMISRTPEVTCVVVDVSHEDPEVKFNWYVDGVEVHNAKTKPREEQYNSTYRVVSVLTVLHQDWLNGKEYKCKVSNKALPAPIEKTISKAKGQPREPQVCTLPPSREEMTKNQVSLSCAVKGFYPSDIAVEWESNGQPENNYKTTPPVLDSDGSFFLVSKLTVDKSRWQQGNVFSCSVMHEALHNHYTQKSLSLSPGK
light 2: DIQMTQSPSSLSASVGDRVTITCRASQGISSWLAWYQQKPEKAPKSLIYAASSLQSGVPSRFSGSGSGTDFTLTISSLQPEDFATYYCQQYNIYPYTFGQGTKLEIKGGGGSSGAPRFLTRPLSYVVSVGKDASLSSQIVGNPTPQVSWEKDQLPVTAGARFRLAQDGDLYRLKILDLQLSDSGQYVSRARNAIGEAFACVGLEVGAEA
In the experiment with hBAFF [2], B5 returned an EC50 of 0.356 nM. The molecule also registered an EC50 in the experiment with hP40 [6] of 0.084 nM. In the experiment with hBAFF [3], the Kd turned out to be 0.499 nM, the off-rate (koff) came to 0.000169 s⁻¹ and the kon amounted to 338000 M⁻¹ s⁻¹. In the experiment with hP40 [7], binding was characterised by a dissociation constant (Kd) of 0.0349 nM, the koff turned out to be 4.81e-05 s⁻¹ and the kon was determined as 1.38e+06 M⁻¹ s⁻¹.

B6: BU4 (bispecific antibody, human IgG1, kappa, L234A L235A)
heavy 1: not shown
light 1: not shown
heavy 2: QVQLQQSGAEVKKPGSSVRVSCKASGGTFNNNAINWVRQAPGQGLEWMGGIIPMFGTAKYSQNFQGRVAITADESTGTASMELSSLRSEDTAVYYCARSRDLLLFPHHALSPWGRGTMVTVSSGGGGSKAGIRGIPPKIECLPSDISIDEGKVLTVASAFTGEPTPEVTWSTGGRKIHSQEQGRFHIESTEDLTTLIISDVQKQDGGLYSLSLGNEFGSDSATVNIHIRSIDKTHTCPPCPAPEAAGGPSVFLFPPKPKDTLMISRTPEVTCVVVDVSHEDPEVKFNWYVDGVEVHNAKTKPREEQYNSTYRVVSVLTVLHQDWLNGKEYKCKVSNKALPAPIEKTISKAKGQPREPQVCTLPPSREEMTKNQVSLSCAVKGFYPSDIAVEWESNGQPENNYKTTPPVLDSDGSFFLVSKLTVDKSRWQQGNVFSCSVMHEALHNHYTQKSLSLSPGK
light 2: SSELTQDPAVSVALGQTVRVTCQGDSLRSYYASWYQQKPGQAPVLVIYGKNNRPSGIPDRFSGSSSGNTASLTITGAQAEDEADYYCSSRDSSGNHWVFGGGTELTVLGGGGSDQPQFSGAPRFLTRPLSYVVSVGKDASLSSQIVGNPTPQVSWEKDQLPVTAGARFRLAQDGDLYRLKILDLQLSDSGQYVSRARNAIGEAFACVGLEVGAEA
Take B6: the EC50 amounted to 0.506 nM with hBAFF [2] and 0.0443 nM in the experiment with hP40 [6].

B7: J3 (antibody)
heavy: not shown
light: SYELTQPLSVSVALGQTARITCSGDNIGSKYVHWYQQKPGQAPVLVIYGDNERPSGIPERFSGSNSGNTATLTISRAQAGDEADYYCQAADWVDFYVFGGGTKLTVLGIPPKIEALPSDISIDEGKVLTVACAFTGEPTPEVTWSCGGRKIHSQEQGRFHIENTDDLTTLIIMDVQKQDGGLYTLSLGNEFGSDSATVNIHIRSI
As to B7, the EC50 with hTSLP came out at 0.25 nM.

(Values after US20240392020A1 (JIANGSU HENGRUI PHARMACEUTICALS, published 2024).)
